The source of these data is paper PMC6160236, “Disrupted structure and aberrant function of CHIP mediates the loss of motor and cognitive function in preclinical models of SCAR16” (PLoS Genetics, 2018).

The term stoichiometry N denotes the number of molecules, sites or subunits per partner or assembly.

For series [1], the target named is T1, CHIP (carboxyl terminus of heat shock 70-interacting protein), recombinant His-tagged wild type (human), Q9UNE7.
T1 chain: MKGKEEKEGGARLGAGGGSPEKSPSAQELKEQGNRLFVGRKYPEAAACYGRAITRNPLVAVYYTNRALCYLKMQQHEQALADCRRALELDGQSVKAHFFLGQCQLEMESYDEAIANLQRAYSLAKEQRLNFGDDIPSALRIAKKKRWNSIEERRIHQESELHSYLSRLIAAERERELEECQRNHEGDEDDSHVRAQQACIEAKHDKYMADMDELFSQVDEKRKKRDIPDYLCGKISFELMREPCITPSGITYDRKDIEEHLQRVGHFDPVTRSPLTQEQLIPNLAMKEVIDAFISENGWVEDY
Briefly: SEC-MALS; GE Superdex 200 column with Wyatt DAWN HELEOS-II and T-Rex refractometer; 100 μl of 0.5 mg/ml of each sample loaded; oligomeric species of each CHIP protein. Conditions: remark: other sources report otherwise. (Size exclusion chromatography separates by hydrodynamic size, large species first.)

Series [2] has as its target T2, myc-CHIP wild type (pcDNA3-mycCHIP) (human), Q9UNE7.
T2 chain: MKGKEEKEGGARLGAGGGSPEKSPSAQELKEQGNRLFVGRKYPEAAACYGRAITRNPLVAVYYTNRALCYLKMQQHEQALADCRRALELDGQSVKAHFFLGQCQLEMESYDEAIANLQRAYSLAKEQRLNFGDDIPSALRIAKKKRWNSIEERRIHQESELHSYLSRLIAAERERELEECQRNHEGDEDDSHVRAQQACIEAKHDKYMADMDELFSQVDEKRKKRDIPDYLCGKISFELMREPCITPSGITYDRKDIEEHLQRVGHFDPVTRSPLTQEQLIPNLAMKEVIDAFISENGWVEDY
Nature of the series: native gel or EMSA; blue native PAGE (4-16% NativePAGE) of fresh lysates of transfected COS-7 cells, immunoblot with anti-myc. Conditions: remark: other sources report otherwise. Background: Mobility shift assays separate free from complexed probe on a gel.

In series [3] the target is T3, CHIP-K30A, recombinant His-tagged (human), Q9UNE7.
T3 chain: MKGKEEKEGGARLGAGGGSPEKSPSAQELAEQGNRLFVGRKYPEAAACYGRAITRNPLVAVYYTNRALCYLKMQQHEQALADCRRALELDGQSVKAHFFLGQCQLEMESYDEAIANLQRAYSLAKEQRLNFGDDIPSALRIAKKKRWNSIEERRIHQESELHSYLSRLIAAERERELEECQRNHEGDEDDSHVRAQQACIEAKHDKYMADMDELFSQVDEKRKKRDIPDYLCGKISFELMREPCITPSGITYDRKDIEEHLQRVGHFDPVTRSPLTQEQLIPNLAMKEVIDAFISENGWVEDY
Briefly: SEC-MALS; GE Superdex 200 column with Wyatt DAWN HELEOS-II and T-Rex refractometer; 100 μl of 0.5 mg/ml of each sample loaded; oligomeric species of each CHIP protein. Particulars: remark: other sources report otherwise.

For series [4], the target named is T4, myc-CHIP-K30A (pcDNA3-mycCHIP-K30A) (human), Q9UNE7.
T4 chain: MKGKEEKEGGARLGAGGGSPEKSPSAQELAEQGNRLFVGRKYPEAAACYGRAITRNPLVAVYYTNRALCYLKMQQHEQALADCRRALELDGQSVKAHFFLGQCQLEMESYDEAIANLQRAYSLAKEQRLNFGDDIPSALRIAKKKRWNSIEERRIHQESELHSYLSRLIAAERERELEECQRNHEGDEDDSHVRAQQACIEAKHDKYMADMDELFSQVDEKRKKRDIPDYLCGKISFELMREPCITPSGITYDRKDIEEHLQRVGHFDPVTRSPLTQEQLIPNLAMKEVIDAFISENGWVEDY
Nature of the series: native gel or EMSA; blue native PAGE (4-16% NativePAGE) of fresh lysates of transfected COS-7 cells, immunoblot with anti-myc. Particulars: remark: other sources report otherwise.

Series [5] deals with the molecule itself. Nature of the series: SEC-MALS; GE Superdex 200 column with Wyatt DAWN HELEOS-II and T-Rex refractometer; 100 μl of 0.5 mg/ml of each sample loaded; oligomeric species of each CHIP protein.

B1: CHIP (carboxyl terminus of heat shock 70-interacting protein), recombinant His-tagged wild type, Q9UNE7 1-303 (enzyme)
chain: MKGKEEKEGGARLGAGGGSPEKSPSAQELKEQGNRLFVGRKYPEAAACYGRAITRNPLVAVYYTNRALCYLKMQQHEQALADCRRALELDGQSVKAHFFLGQCQLEMESYDEAIANLQRAYSLAKEQRLNFGDDIPSALRIAKKKRWNSIEERRIHQESELHSYLSRLIAAERERELEECQRNHEGDEDDSHVRAQQACIEAKHDKYMADMDELFSQVDEKRKKRDIPDYLCGKISFELMREPCITPSGITYDRKDIEEHLQRVGHFDPVTRSPLTQEQLIPNLAMKEVIDAFISENGWVEDY
For B1, in series [1], the percent of the protein as 2mer was found to be 69.7%, the percent of the protein as 4mer turned out to be 25.2%, the percent of the protein as 6mer came out at 4.8% and the stoichiometry N amounted to 2.

B2: myc-CHIP wild type (pcDNA3-mycCHIP), Q9UNE7 1-303 (enzyme)
chain: MKGKEEKEGGARLGAGGGSPEKSPSAQELKEQGNRLFVGRKYPEAAACYGRAITRNPLVAVYYTNRALCYLKMQQHEQALADCRRALELDGQSVKAHFFLGQCQLEMESYDEAIANLQRAYSLAKEQRLNFGDDIPSALRIAKKKRWNSIEERRIHQESELHSYLSRLIAAERERELEECQRNHEGDEDDSHVRAQQACIEAKHDKYMADMDELFSQVDEKRKKRDIPDYLCGKISFELMREPCITPSGITYDRKDIEEHLQRVGHFDPVTRSPLTQEQLIPNLAMKEVIDAFISENGWVEDY
As to B2, in series [2], the stoichiometry N is 2.

B3: CHIP-K30A, recombinant His-tagged, Q9UNE7 1-303 (enzyme)
chain: MKGKEEKEGGARLGAGGGSPEKSPSAQELAEQGNRLFVGRKYPEAAACYGRAITRNPLVAVYYTNRALCYLKMQQHEQALADCRRALELDGQSVKAHFFLGQCQLEMESYDEAIANLQRAYSLAKEQRLNFGDDIPSALRIAKKKRWNSIEERRIHQESELHSYLSRLIAAERERELEECQRNHEGDEDDSHVRAQQACIEAKHDKYMADMDELFSQVDEKRKKRDIPDYLCGKISFELMREPCITPSGITYDRKDIEEHLQRVGHFDPVTRSPLTQEQLIPNLAMKEVIDAFISENGWVEDY
Regarding B3, in series [3], the percent of the protein as 2mer was 80.4%, the percent of the protein as 4mer came to 16.4%, the percent of the protein as 6mer turned out to be 2.6% and the stoichiometry N is 2.

B4: myc-CHIP-K30A (pcDNA3-mycCHIP-K30A), Q9UNE7 1-303 (enzyme)
chain: MKGKEEKEGGARLGAGGGSPEKSPSAQELAEQGNRLFVGRKYPEAAACYGRAITRNPLVAVYYTNRALCYLKMQQHEQALADCRRALELDGQSVKAHFFLGQCQLEMESYDEAIANLQRAYSLAKEQRLNFGDDIPSALRIAKKKRWNSIEERRIHQESELHSYLSRLIAAERERELEECQRNHEGDEDDSHVRAQQACIEAKHDKYMADMDELFSQVDEKRKKRDIPDYLCGKISFELMREPCITPSGITYDRKDIEEHLQRVGHFDPVTRSPLTQEQLIPNLAMKEVIDAFISENGWVEDY
Molecule B4 returned a stoichiometry N in series [4] of 2.

B5: CHIP-T246M, recombinant His-tagged (enzyme, human, UniProt Q9UNE7 1-303, looked up)
chain: MKGKEEKEGGARLGAGGGSPEKSPSAQELKEQGNRLFVGRKYPEAAACYGRAITRNPLVAVYYTNRALCYLKMQQHEQALADCRRALELDGQSVKAHFFLGQCQLEMESYDEAIANLQRAYSLAKEQRLNFGDDIPSALRIAKKKRWNSIEERRIHQESELHSYLSRLIAAERERELEECQRNHEGDEDDSHVRAQQACIEAKHDKYMADMDELFSQVDEKRKKRDIPDYLCGKISFELMREPCIMPSGITYDRKDIEEHLQRVGHFDPVTRSPLTQEQLIPNLAMKEVIDAFISENGWVEDY
notes: CHIP (gene STUB1), full-length protein with the SCAR16 patient mutation p.T246M in the U-box; T246M is a mutation found in SCAR16 patients; source: Escherichia coli BL21(DE3), purified (HisTrap HP)
With B5, the “stoichiometry N” value in series [5] lay within 10 to 12.
